The term inhibition denotes the drop in the measured response relative to a control, in per cent. One may read the Ki as a measure of affinity in units of concentration, obtained from inhibition or displacement.

The chains are these.
B1: phage carrying peptide HK2p06 as part of pIII protein (peptide)
chain: CYRMPTCMQRD
modifications: disulfide (positions not given here); also: displayed as fusion to phage pIII protein
notes: also called phage p06; HK2p06 phage clone (X11 library); not shown: pIII coat protein of fUSE-5 filamentous phage
B2: phage carrying peptide HK2p02 as part of pIII protein (peptide)
chain: AARRPFPAPS
notes: also called phage p02; HK2p02 phage clone (X10 library); not shown: pIII coat protein of fUSE-5 filamentous phage
B3: phage carrying peptide HK2p03 as part of pIII protein (peptide)
chain: PARRPFPVTA
notes: also called phage p03; HK2p03 phage clone (X10 library); not shown: pIII coat protein of fUSE-5 filamentous phage
B4: phage carrying peptide HK2p04 as part of pIII protein (peptide)
chain: CFRQGCWVIT
modifications: disulfide (positions not given here); also: displayed as fusion to phage pIII protein
notes: also called phage p04; HK2p04 phage clone (X10 library); not shown: pIII coat protein of fUSE-5 filamentous phage
B5: synthetic peptide HK2p06 (CYRMPTCMQRD) (peptide)
peptide: CYRMPTCMQRD
modifications: disulfide 1-7 (inferred)
notes: Two Cys residues, said to indicate a cyclic structure

Positions of bridges follow the written chain, without caps; N, C: chain ends. Non-standard residues stand in square brackets, D forms with d. No end group written: not given here. Sar = CNCC(=O)O

The target of the first test is T1, recombinant wild-type (wt) human kallikrein 2 (human, UniProt P20151 25-261). The test can be described thus: cell-based or functional assay.
As for ARFKVWWAAG (S1A variant of HK2p01) [ARFKVWWAAG (SEQ ID NO:56)], the “IC50 for hK2 inhibition (cleavage of S-2302)” value came out at 2200 nM. On the same count and under the same terms, to SRFKVWWAAG [synthetic peptide HK2p01 (SRFKVWWAAG)] belongs 3400 nM.

The target of another test is T1, recombinant wild-type (wt) human …. Kind of test: cell-based or functional assay. The source holds these as a separate data set.
For SRFKAWWAAG-OH [SRFKAWWAAG (SEQ ID NO:60)], the inhibition was found to be 39%. Regarding GPFPVTAG-OH [GFFPVTAG as printed in Table 6 (SEQ ID NO:35)], the inhibition is 0%. Consider GRRPAPG-OH [GRRPAPG (SEQ ID NO:43)], for which the inhibition was determined as 0%. Take GAARR[Sar]F[Sar]APG [GAARR-Sar-F-Sar-APG (SEQ ID NO:54)]: the inhibition is 0%. Turning to RRPFP [RRPFP (SEQ ID NO:40)], the inhibition turned out to be 0%. As for GPARG-OH [GPARG (SEQ ID NO:30)], the inhibition came out at 0%.

On to GAARRPF[Sar]APG [GAARRPF-Sar-APG (SEQ ID NO:53)], for which the inhibition turned out to be 24%.

For the molecule GPARRPFPVG-OH [GPARRPFPVG (SEQ ID NO:25)], the inhibition was 37%. As for AARRPAPG-OH [AARRPAPG (SEQ ID NO:45)], the inhibition is 36%.

GAARR[Sar]FPAPG [GAARR-Sar-FPAPG (SEQ ID NO:52)]: the inhibition was found to be 0%.

Take GPARRPFPVAAG-OH [GPARRPFPVAAG (SEQ ID NO:23)]: the inhibition turned out to be 45%. Same read-out and setting: to GVTAG-OH [GVTAG (SEQ ID NO:38)] belongs 0%; to GRRPFPG-OH [GRRPFPG (SEQ ID NO:44)], 0%; to RRPAP [RRPAP (SEQ ID NO:39)], 0%.

On to ARFKVWWAAG (S1A variant of HK2p01) [ARFKVWWAAG (SEQ ID NO:56)], for which the inhibition came out at 94%. Take GPARRPFPVTG-OH [GPARRPFPVTG (SEQ ID NO:24)]: the inhibition is 48%. On the same count and under the same terms, to SRAKVWWAAG-OH [SRAKVWWAAG (SEQ ID NO:58)] belongs 0%.

Turning to GPVTAG-OH [GFVTAG as printed in Table 6 (SEQ ID NO:37)], the inhibition amounted to 0%. On to AAARRPAPG [AAARRPAPG (SEQ ID NO:46)], for which the inhibition amounted to 51%.

For SRFKVWAAAG-OH [SRFKVWAAAG (SEQ ID NO:62)], the inhibition stood at 30%.

For the molecule GPARRPAPVTAG-OH [GPARRPAPVTAG (SEQ ID NO:20)], the inhibition was 49%.

On to GPARRG-OH [GPARRG (SEQ ID NO:29)], for which the inhibition was determined as 8%.

Consider GRPFPVTAG-OH [… as printed in Table 6 (SEQ ID NO:34)], for which the inhibition turned out to be 0%.

GPARRPFG-OH [GPARRPFG (SEQ ID NO:27)]: the inhibition turned out to be 0%. Same read-out and setting: to GARRPFPVTAG [GARRPFPVTAG (SEQ ID NO:32)] belongs 27%; to GPARRPFPATAG-OH [GPARRPFPATAG (SEQ ID NO:22)], 58%. As to RRPFG-OH [RRPFG (SEQ ID NO:42)], the inhibition stood at 0%. On to GPARRPFAVTAG-OH [GPARRPFAVTAG (SEQ ID NO:21)], for which the inhibition was 17%. Turning to AARRPFPG [AARRPFPG (SEQ ID NO:47)], the inhibition stood at 28%. In the case of SRFAVWWAAG-OH [SRFAVWWAAG (SEQ ID NO:59)], the inhibition came to 0%. Consider RRPAG-OH [RRPAG (SEQ ID NO:41)], for which the inhibition is 0%. Take GFPVTAG-OH [GFFVTAG as printed in Table 6 (SEQ ID NO:36)]: the inhibition was determined as 0%. In the case of AAARRPFPG [AAARRPFPG (SEQ ID NO:48)], the inhibition came out at 37%. Still for that read-out and setting: to GAARRPFPAPG [GAARRPFPAPG (SEQ ID NO:51)] belongs 69%; to SRFKVAWAAG-OH [SRFKVAWAAG (SEQ ID NO:61)], 10%. GPARRPG-OH [GFARRFG as printed in Table 6 (SEQ ID NO:28)]: the inhibition was 4%.

Regarding GRRPFPVTAG-OH [… as printed in Table 6 (SEQ ID NO:33)], the inhibition amounted to 2%. Take GPARRPFPG-OH [GPARRPFPG (SEQ ID NO:26)]: the inhibition worked out at 33%.

For a further test the target is unchanged. The test can be described thus: phage display selection on hK2 captured by MAb 5E4, four rounds. On the procedure: The phage display libraries were constructed in fUSE-5-phage as previously described (Koivunen et al. 1994). We screened libraries with the structures CX₇C, CX₈C, X₉, X₁₀, X₁₁, CX₃CX₃CX₃C, CX₈, CX₉, X₂CX₁₁C, where C stands for cysteine and X for any of the randomly occurring amino acids. Screening was performed according to Koivunen et al. (Koivunen et al. 1994). We screened each peptide library against hK2, which was captured by MAb 5E4 coated into microtiter wells (Wu, Leinonen et al. 2000). MAb 5E4 binds PSA and hK2 in an equimolar manner and reacts with an epitope which is remote from the active site of these enzymes (Stenman et al. 1999), (Leinonen, Wu et al. 2002). Twenty four ng of hK2 was incubated in antibody-coated wells for 30 minutes at 37° C. in Tris/NaCl buffer followed by washing of unbound hK2. An aliquot of phage libraries containing 10¹⁰-10¹¹ transducing units was added into the microtiter wells in 100 μL of 1% BSA in TBS, which was composed of 0.05 mol/L Tris buffer (pH 7.7) containing 0.154 mol/L NaCl and 8 mmol/L NaN3. Incubation took place at 4° C. with gentle shaking for 16-24 hours in the first round and for 1 hour for the following three rounds. The phages were removed and wells were washed with TBS containing 0.5% Tween 20. For elution of the bound phage 0.1 M Glycine-HCl, pH 2.2 containing 0.1% BSA was added. The eluted phage suspension was neutralized with 1 M Tris buffer, pH 9.0, amplified by infection of Escherichia coli K91 cells and purified by polyethylene glycol precipitation (Wu, Leinonen et al. 2000). After four rounds of selection and amplification single stranded DNA from individual phage clones was prepared. The peptide sequences were determined after amplification by PCR (Koivunen et al. 2001). The relevant part of the viral DNA was sequenced with an ABI 310 Genetic analyzer and Dye Terminator Cycle Sequencing Core Kit (PE Applied Biosystems, Foster City, Calif., USA) using the primer 5′-TAATACGACTCACTATAGGGCAAGCTGATAAACCGATACAAT-3′ (SEQ ID NO: 130).
B1: the binding result is on record as “binds”. In the case of B2, the binding result was “binds”.

Regarding B3, the binding result is listed as “binds”.

As to B4, the binding result is reported as “binds”.

A further test shares this target. The test can be described thus: competition phage IFMA on hK2 captured by MAb 5E4; 5 µM synthetic peptide. On the procedure: The phage IFMA was performed essentially as described (Wu, Leinonen et al. 2000). In this assay, 50 ng of hK2 in 200 μL of assay buffer was captured onto wells coated with MAb 5E4. After washing, 2.5 μL of phage (10⁸-10⁹ infectious particles) and 200 μL assay buffer were added to wells. After incubation for 1 h, the wells were washed and filled with 200 μL of assay buffer containing 100 ng Eu-labeled anti-phage polyclonal antibody recognizing the M13 coat protein of the phage. After incubation for 60 min, the wells were washed 4 times, and enhancement solution (Perkin Elmer-Wallac) was added. The fluorescence was quantified with a Victor fluorometer in time resolved mode (Perkin Elmer-Wallac).
The relative binding sites of the peptides on hK2 were mapped by competition experiments with chemically synthesized and phage peptides. The protocol was based on the IFMA method described above except that phages and the synthetic peptides were reacted together with hK2. Briefly, each of the synthetic peptides at 5 μM concentration was added into the wells in which hK2 had been captured by MAb 5E4. After incubation for 30 min each phage was added. After 1 h incubation, the wells were washed and the assay was as described above for IFMA.
With B5, the binding result was “binds”.

Another test has the same target. The test can be described thus: Lineweaver-Burke plots; cleavage of 0-400 µM S-2302 by 0.2 µM hK2 at 4 µM peptide.
ARFKVWWAAG (S1A variant of HK2p01) [ARFKVWWAAG (SEQ ID NO:56)]: the Ki worked out at 1410 nM.

The values above are taken from patent publication US20090214427A1 (LICENTIA, published 2009).
